Assay results reported in ChEMBL document CHEMBL2074551, “Drug resistance and ATP-dependent conjugate transport mediated by the apical multidrug resistance protein, MRP2, permanently expressed in human and canine cells” (Mol Pharmacol, 1999).

How the values were obtained:
[1] = substrate: C[C@]12CC[C@@H]3c4ccc(O)cc4CC[C@H]3[C@@H]1CC[C@@H]2O[C@@H]1O[C@H](C(=O)O)[C@@H](O)[C@H](O)[C@H]1O; test: (§1) TP_TRANSPORTER: uptake in membrane vesicle from MRP2-expressing HEK-293 cells; type: functional, cell membranes, HEK293
[2] = substrate: CCCCC/C=C\C\C=C/C=C/C=C/[C@@H](SC[C@@H](NC(=O)CC[C@H](N)C(=O)O)C(=O)NCC(=O)O)[C@@H](O)CCCC(=O)O; test: as §1; type: functional, cell membranes, HEK293

B1: ATP-binding cassette sub-family C member 2 (Homo sapiens) (protein)
chain: MLEKFCNSTFWNSSFLDSPEADLPLCFEQTVLVWIPLGYLWLLAPWQLLHVYKSRTKRSSTTKLYLAKQVFVGFLLILAAIELALVLTEDSGQATVPAVRYTNPSLYLGTWLLVLLIQYSRQWCVQKNSWFLSLFWILSILCGTFQFQTLIRTLLQGDNSNLAYSCLFFISYGFQILILIFSAFSENNESSNNPSSIASFLSSITYSWYDSIILKGYKRPLTLEDVWEVDEEMKTKTLVSKFETHMKRELQKARRALQRRQEKSSQQNSGARLPGLNKNQSQSQDALVLEDVEKKKKKSGTKKDVPKSWLMKALFKTFYMVLLKSFLLKLVNDIFTFVSPQLLKLLISFASDRDTYLWIGYLCAILLFTAALIQSFCLQCYFQLCFKLGVKVRTAIMASVYKKALTLSNLARKEYTVGETVNLMSVDAQKLMDVTNFMHMLWSSVLQIVLSIFFLWRELGPSVLAGVGVMVLVIPINAILSTKSKTIQVKNMKNKDKRLKIMNEILSGIKILKYFAWEPSFRDQVQNLRKKELKNLLAFSQLQCVVIFVFQLTPVLVSVVTFSVYVLVDSNNILDAQKAFTSITLFNILRFPLSMLPMMISSMLQASVSTERLEKYLGGDDLDTSAIRHDCNFDKAMQFSEASFTWEHDSEATVRDVNLDIMAGQLVAVIGPVGSGKSSLISAMLGEMENVHGHITIKGTTAYVPQQSWIQNGTIKDNILFGTEFNEKRYQQVLEACALLPDLEMLPGGDLAEIGEKGINLSGGQKQRISLARATYQNLDIYLLDDPLSAVDAHVGKHIFNKVLGPNGLLKGKTRLLVTHSMHFLPQVDEIVVLGNGTIVEKGSYSALLAKKGEFAKNLKTFLRHTGPEEEATVHDGSEEEDDDYGLISSVEEIPEDAASITMRRENSFRRTLSRSSRSNGRHLKSLRNSLKTRNVNSLKEDEELVKGQKLIKKEFIETGKVKFSIYLEYLQAIGLFSIFFIILAFVMNSVAFIGSNLWLSAWTSDSKIFNSTDYPASQRDMRVGVYGALGLAQGIFVFIAHFWSAFGFVHASNILHKQLLNNILRAPMRFFDTTPTGRIVNRFAGDISTVDDTLPQSLRSWITCFLGIISTLVMICMATPVFTIIVIPLGIIYVSVQMFYVSTSRQLRRLDSVTRSPIYSHFSETVSGLPVIRAFEHQQRFLKHNEVRIDTNQKCVFSWITSNRWLAIRLELVGNLTVFFSALMMVIYRDTLSGDTVGFVLSNALNITQTLNWLVRMTSEIETNIVAVERITEYTKVENEAPWVTDKRPPPDWPSKGKIQFNNYQVRYRPELDLVLRGITCDIGSMEKIGVVGRTGAGKSSLTNCLFRILEAAGGQIIIDGVDIASIGLHDLREKLTIIPQDPILFSGSLRMNLDPFNNYSDEEIWKALELAHLKSFVASLQLGLSHEVTEAGGNLSIGQRQLLCLGRALLRKSKILVLDEATAAVDLETDNLIQTTIQNEFAHCTVITIAHRLHTIMDSDKVMVLDNGKIIECGSPEELLQIPGPFYFMAKEAGIENVNSTKF
For B1, the Km [1] was 7.2 µM and the Km [2] was 1 µM.

B2: ATP-binding cassette sub-family C member 2 (Rattus norvegicus) (protein)
chain: MDKFCNSTFWDLSLLESPEADLPLCFEQTVLVWIPLGFLWLLAPWQLYSVYRSRTKRSSITKFYLAKQVFVVFLLILAAIDLSLALTEDTGQATVPPVRYTNPILYLCTWLLVLAVQHSRQWCVRKNSWFLSLFWILSVLCGVFQFQTLIRALLKDSKSNMAYSYLFFVSYGFQIVLLILTAFSGPSDSTQTPSVTASFLSSITFSWYDRTVLKGYKHPLTLEDVWDIDEGFKTRSVTSKFEAAMTKDLQKARQAFQRRLQKSQRKPEATLHGLNKKQSQSQDVLVLEEAKKKSEKTTKDYPKSWLIKSLFKTFHVVILKSFILKLIHDLLVFLNPQLLKLLIGFVKSSNSYVWFGYICAILMFAVTLIQSFCLQSYFQHCFVLGMCVRTTVMSSIYKKALTLSNLARKQYTIGETVNLMSVDSQKLMDATNYMQLVWSSVIQITLSIFFLWRELGPSILAGVGVMVLLIPVNGVLATKIRNIQVQNMKNKDKRLKIMNEILSGIKILKYFAWEPSFQEQVQGIRKKELKNLLRFGQLQSLLIFILQITPILVSVVTFSVYVLVDSANVLNAEKAFTSITLFNILRFPLSMLPMVTSSILQASVSVDRLERYLGGDDLDTSAIRRVSNFDKAVKFSEASFTWDPDLEATIQDVNLDIKPGQLVAVVGTVGSGKSSLVSAMLGEMENVHGHITIQGSTAYVPQQSWIQNGTIKDNILFGSEYNEKKYQQVLKACALLPDLEILPGGDMAEIGEKGINLSGGQKQRVSLARAAYQDADIYILDDPLSAVDAHVGKHIFNKVVGPNGLLAGKTRIFVTHGIHFLPQVDEIVVLGKGTILEKGSYRDLLDKKGVFARNWKTFMKHSGPEGEATVNNDSEAEDDDDGLIPTMEEIPEDAASLAMRRENSLRRTLSRSSRSSSRRGKSLKNSLKIKNVNVLKEKEKEVEGQKLIKKEFVETGKVKFSIYLKYLQAVGWWSILFIILFYGLNNVAFIGSNLWLSAWTSDSDNLNGTNNSSSHRDMRIGVFGALGLAQGICLLISTLWSIYACRNASKALHGQLLTNILRAPMRFFDTTPTGRIVNRFSGDISTVDDLLPQTLRSWMMCFFGIAGTLVMICMATPVFAIIIIPLSILYISVQVFYVATSRQLRRLDSVTKSPIYSHFSETVTGLPIIRAFEHQQRFLAWNEKQIDINQKCVFSWITSNRWLAIRLELVGNLVVFCSALLLVIYRKTLTGDVVGFVLSNALNITQTLNWLVRMTSEAETNIVAVERISEYINVENEAPWVTDKRPPADWPRHGEIQFNNYQVRYRPELDLVLKGITCNIKSGEKVGVVGRTGAGKSSLTNCLFRILESAGGQIIIDGIDVASIGLHDLRERLTIIPQDPILFSGSLRMNLDPFNKYSDEEVWRALELAHLRSFVSGLQLGLLSEVTEGGDNLSIGQRQLLCLGRAVLRKSKILVLDEATAAVDLETDSLIQTTIRKEFSQCTVITIAHRLHTIMDSDKIMVLDNGKIVEYGSPEELLSNRGSFYLMAKEAGIENVNHTEL
B2 gave a Km [1] of 6.9 µM and a Km [2] of 1.1 µM.
